Experimental data from patent publication US20250215100A1.

Molecular target: human CD40 on cells (human) (UniProt P25942)
Experiment: FACS, inhibition of human CD40L-his binding to CHO-K1/hCD40 cells

Chain of human CD40 on cells (human) (P25942 21-277): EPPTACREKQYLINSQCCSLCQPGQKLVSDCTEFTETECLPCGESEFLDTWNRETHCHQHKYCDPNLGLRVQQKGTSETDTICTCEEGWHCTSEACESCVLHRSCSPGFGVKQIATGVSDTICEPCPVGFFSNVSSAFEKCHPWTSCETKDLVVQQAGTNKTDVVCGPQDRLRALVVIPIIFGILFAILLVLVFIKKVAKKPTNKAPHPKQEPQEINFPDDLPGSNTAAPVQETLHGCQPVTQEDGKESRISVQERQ

Substance hIgG1 (antibody) has a Maximum inhibition rate (%) of 2.3%.
